# Data as given in paper PMC4752726.
# Assays:
# Assay in all cases: BLI
# [1] = target: C-terminally biotinylated FcγRIIIa made from FcγRIIIa-ST-H6 by sortase-mediated ligation (human) (UniProt P08637)
# [2] = target: GlcNAc-IgG1 Fc glycoform (GlcNAc-Fc) (human)
# [3] = target: High mannose IgG1 Fc (HM-Fc), di-glycosylated form (human)
# [4] = target: Man5-IgG1 Fc glycoform (Man5-Fc) (human)
substance,measurement,setting,value
GlcNAc-IgG1 Fc glycoform (GlcNAc-Fc) (domain or fragment),Kd,[1],995 nM
same,koff,[1],0.161 s⁻¹
"High mannose IgG1 Fc (HM-Fc), di-glycosylated form (domain or fragment)",Kd,[1],26.4 nM
same,koff,[1],0.0079 s⁻¹
Man5-IgG1 Fc glycoform (Man5-Fc) (domain or fragment),Kd,[1],32.8 nM
soluble domain of FcγRIIIa with a C-terminal histidine tag (FcγRIIIa-H6) (receptor),Kd,[2],1120 nM
same,koff,[2],0.14 s⁻¹
same,kon,[2],120000 M⁻¹ s⁻¹
same,Kd,[3],27.7 nM
same,koff,[3],0.0054 s⁻¹
same,kon,[3],190000 M⁻¹ s⁻¹
same,Kd,[4],31.8 nM
same,koff,[4],0.0051 s⁻¹
same,kon,[4],160000 M⁻¹ s⁻¹
